A short description of the data set: protein stability index of a GFP-peptide fusion (GPS, HEK-293T) (PSI 1-6); higher = more stable.
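Note: lentivirally expressed fusions sorted by FACS into six bins by GFP to DsRed ratio, PSI derived from sequencing read proportions per bin multiplied by bin number.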

B1: SNAP91 WT (peptide)
chain: FGGSFMAPSPSPVTPAQNNLLQPN
Regarding B1, where the note is “parent: IOH52952_113, c terminus: a fixed tail appended”, the protein stability index was 1.96.

B2: SLC19A2 WT (peptide)
chain: FASLRPSEPFLTPYLLGPDKNLTE
Take B2: the protein stability index (parent: IOH52104_8, c terminus: a fixed tail appended) is 2.

B3: SNAP91 WT (peptide)
chain: FSTDAFSSPPQGASPVPESSLTAD
B3: under “parent: IOH52952_99, c terminus: a fixed tail appended”, the protein stability index worked out at 3.2.

B4: TOR1AIP2 WT (peptide)
chain: YTSSQKVSPIQIDGAGRTWQDSDT
With B4, where the note is “parent: IOH51997_54, c terminus: a fixed tail appended”, the protein stability index worked out at 3.33.

B5: KRT13 WT (peptide)
chain: YGGGLGGGFGGGFAGGFVDFGACD
Consider B5, for which the protein stability index (parent: IOH51951_13, c terminus: a fixed tail appended) was 1.83.

B6: TOR1AIP2 WT (peptide)
chain: YKYCDHENAAFKDVALVLTVLLEE
As for B6, the protein stability index (parent: IOH51997_64, c terminus: a fixed tail appended) was 2.27.

B7: KRT13 WT (peptide)
chain: TSSASVTTTSNASGRRTSDVRRP
Take B7: the protein stability index (parent: IOH51951_76, c terminus: native) was determined as 2.45.

B8: KRT13 WT (peptide)
chain: KTIEELRDKILTATIENNRVILEI
Regarding B8, where the note is “parent: IOH51951_27, c terminus: a fixed tail appended”, the protein stability index stood at 2.97.

B9: OR10K2 WT (peptide)
chain: SLARLQQLLFVIFLLLYLFTLGTN
For B9, the protein stability index (parent: IOH46300_4, c terminus: a fixed tail appended) came out at 2.15.

B10: SLC19A2 WT (peptide)
chain: FHHIPSTCQRVNGIKVQNGGIVTD
As to B10, where the note is “parent: IOH52104_37, c terminus: a fixed tail appended”, the protein stability index stood at 1.8.

B11: CLCN6 WT (peptide)
chain: VGEIVGIITRHNLTYEFLQARLRQ
In the case of B11, where the note is “parent: IOH52910_141, c terminus: a fixed tail appended”, the protein stability index is 2.41.

B12: TRIM63 WT (peptide)
chain: QEKKLSFIEALIQQYQEQLDKSTK
Consider B12, for which the protein stability index (parent: IOH45956_40, c terminus: a fixed tail appended) came out at 2.57.

B13: HDAC6 WT (peptide)
chain: YVHHQALLDVKNIAHQNKFGEDMP
As to B13, where the note is “parent: IOH53646_199, c terminus: a fixed tail appended”, the protein stability index came out at 2.

B14: POLD4 WT (peptide)
chain: ITDSYPVVKRREGPAGHSKGELAP
Take B14: the protein stability index (parent: IOH45937_2, c terminus: a fixed tail appended) turned out to be 2.96.

B15: SNAP91 WT (peptide)
chain: FATASAAVPVSTSKPSSDLLDLQP
For the protein B15, under “parent: IOH52952_56, c terminus: a fixed tail appended”, the protein stability index was found to be 3.71.

B16: CLCN6 WT (peptide)
chain: MAGCRGSLCCCCRWCCCCGERETR
For the protein B16, where the note is “parent: IOH52910_1, c terminus: a fixed tail appended”, the protein stability index is 1.87.

B17: CLCN6 WT (peptide)
chain: ILRSQLVTLLVRGVCYSESQSSAS
As to B17, where the note is “parent: IOH52910_125, c terminus: a fixed tail appended”, the protein stability index is 2.67.

B18: TOR1AIP2 WT (peptide)
chain: SPGHSSAGQEGEDTLRRRLLAPEA
In the case of B18, the protein stability index (parent: IOH51997_28, c terminus: a fixed tail appended) was 4.18.

B19: TRIM63 WT (peptide)
chain: QRITQEQEKKLSFIEALIQQYQEQ
Regarding B19, the protein stability index (parent: IOH45956_39, c terminus: a fixed tail appended) was determined as 2.31.

B20: ETS1 WT (peptide)
chain: YVRDRADLNKDKPVIPAAALAGYT
With B20, under “parent: IOH46473_52, c terminus: a fixed tail appended”, the protein stability index is 2.15.

B21: CLCN6 WT (peptide)
chain: TGLVGLFVDFFVRLFTQLKFGVVQ
As to B21, the protein stability index (parent: IOH52910_16, c terminus: a fixed tail appended) was 2.3.

B22: INTS4 WT (peptide)
chain: AKQIMEETYKMEFMYSGVENKQVV
Turning to B22, where the note is “parent: IOH53018_117, c terminus: a fixed tail appended”, the protein stability index turned out to be 1.69.

B23: ETS1 WT (peptide)
chain: FSEPSFITESYQTLHPISSEELLS
For B23, the protein stability index (parent: IOH46473_30, c terminus: a fixed tail appended) amounted to 1.94.

B24: CLCN6 WT (peptide)
chain: FQSISLRKIQFNFPYFRSDRDKRD
With B24, under “parent: IOH52910_37, c terminus: a fixed tail appended”, the protein stability index is 1.87.

B25: TOR1AIP2 WT (peptide)
chain: DGAGRTWQDSDTVKLLVDLELSYG
On to B25, for which the protein stability index (parent: IOH51997_56, c terminus: a fixed tail appended) came out at 1.82.

B26: SLC19A2 WT (peptide)
chain: IYPVWTYSYLVLLFPVFLATDYLR
On to B26, for which the protein stability index (parent: IOH52104_13, c terminus: a fixed tail appended) came to 2.89.

B27: RAD54B WT (peptide)
chain: YVQEKRDGLKRRQQLEEELLRAKI
As for B27, where the note is “parent: IOH45968_20, c terminus: a fixed tail appended”, the protein stability index is 1.89.

B28: RTN2 WT (peptide)
chain: SERPLEDLRLRLDHLGWVARGTGS
Turning to B28, the protein stability index (parent: IOH53506_23, c terminus: a fixed tail appended) is 2.32.

B29: INTS4 WT (peptide)
chain: TIIEPAGESDNPLRFTSGLVVALD
B29: the protein stability index (parent: IOH53018_138, c terminus: a fixed tail appended) turned out to be 2.83.

B30: KLHL14 WT (peptide)
chain: CAVLDDSIYLVGGYSWSMGAYKSS
In the case of B30, the protein stability index (parent: IOH52486_95, c terminus: a fixed tail appended) came to 2.2.

B31: CDC14A WT (peptide)
chain: LNLAMVYRYCCKLNKKLKSYSLSR
Regarding B31, the protein stability index (parent: IOH46617_10, c terminus: a fixed tail appended) came to 2.15.

B32: CDC14A WT (peptide)
chain: GPHPKSKIENGYPLHAPEAYFPYF
Regarding B32, where the note is “parent: IOH46617_33, c terminus: a fixed tail appended”, the protein stability index was found to be 2.25.

B33: KLHL14 WT (peptide)
chain: NETGYLSSVECYNLETNEWRYVSS
In the case of B33, the protein stability index (parent: IOH52486_73, c terminus: a fixed tail appended) stood at 2.24.

B34: SEPHS2 WT (peptide)
chain: KASGRFGLLQGTSAETSGGLLICL
On to B34, for which the protein stability index (parent: IOH46138_60, c terminus: a fixed tail appended) came to 2.7.

B35: SNAP91 WT (peptide)
chain: FAAPSPATTASPAKVDSSGVIDLF
Consider B35, for which the protein stability index (parent: IOH52952_104, c terminus: a fixed tail appended) came out at 2.35.

B36: HDAC6 WT (peptide)
chain: KMKTRELHRESSNFDSIYICPSTF
For B36, the protein stability index (parent: IOH53646_93, c terminus: a fixed tail appended) worked out at 2.14.

B37: SNAP91 WT (peptide)
chain: FAQPMMRPPFGAAAVPGTQLSPSP
Regarding B37, the protein stability index (parent: IOH52952_144, c terminus: a fixed tail appended) amounted to 3.08.

B38: CDC14A WT (peptide)
chain: LWVQGDIFRSKLKNRPSSEGSINK
B38: for the setting “parent: IOH46617_56, c terminus: a fixed tail appended”, the protein stability index came out at 2.28.

B39: KLHL14 WT (peptide)
chain: WLYCYDPVMDVWARKQDMNTKRAI
In the case of B39, the protein stability index (parent: IOH52486_82, c terminus: a fixed tail appended) came to 1.93.

B40: INTS4 WT (peptide)
chain: YSSGEFSSGRKWGDDAPKEEVDTG
Regarding B40, the protein stability index (parent: IOH53018_58, c terminus: a fixed tail appended) is 2.34.

B41: TOR1AIP2 WT (peptide)
chain: AGQEGEDTLRRRLLAPEAGSHPQQ
As to B41, the protein stability index (parent: IOH51997_29, c terminus: a fixed tail appended) is 2.33.

B42: TRIM63 WT (peptide)
chain: FRCPTCRHEVIMDRHGVYGLQRNL
Turning to B42, the protein stability index (parent: IOH45956_13, c terminus: a fixed tail appended) is 1.95.

B43: HDAC6 WT (peptide)
chain: ACAQLATGAACRLVEAVLSGEVLN
Turning to B43, the protein stability index (parent: IOH53646_97, c terminus: a fixed tail appended) turned out to be 2.94.

B44: HDAC6 WT (peptide)
chain: DLMETTQYMNEGELRVLADTYDSV
Take B44: the protein stability index (parent: IOH53646_26, c terminus: a fixed tail appended) was 2.05.

B45: HDAC6 WT (peptide)
chain: QEGLLDRCVSFQARFAEKEELMLV
Consider B45, for which the protein stability index (parent: IOH53646_21, c terminus: a fixed tail appended) turned out to be 1.78.

B46: KLHL14 WT (peptide)
chain: YVIGGRNETGYLSSVECYNLETNE
Regarding B46, the protein stability index (parent: IOH52486_72, c terminus: a fixed tail appended) was 1.96.

B47: CAMK2D WT (peptide)
chain: IVRLHDSISEEGFHYLVFDLVTGG
On to B47, for which the protein stability index (parent: IOH54032_13, c terminus: a fixed tail appended) amounted to 2.65.

B48: CAMK2D WT (peptide)
chain: LLKHPNIVRLHDSISEEGFHYLVF
For the protein B48, the protein stability index (parent: IOH54032_12, c terminus: a fixed tail appended) was 2.28.

B49: KRT13 WT (peptide)
chain: TPGIDLTRVLAEMREQYEAMAERN
As to B49, for the setting “parent: IOH51951_45, c terminus: a fixed tail appended”, the protein stability index is 3.68.

B50: HDAC6 WT (peptide)
chain: QYMNEGELRVLADTYDSVYLHPNS
Take B50: for the setting “parent: IOH53646_27, c terminus: a fixed tail appended”, the protein stability index was determined as 1.87.

B51: TRIM63 WT (peptide)
chain: ANPYWTSRGSSVSMSGGRFRCPTC
Take B51: the protein stability index (parent: IOH45956_10, c terminus: a fixed tail appended) was 1.99.

B52: INTS4 WT (peptide)
chain: IRLVDDAFGKICHMVSDGSWVVRV
As for B52, the protein stability index (parent: IOH53018_47, c terminus: a fixed tail appended) turned out to be 3.03.

B53: TOR1AIP2 WT (peptide)
chain: HHVADAYTSSQKVSPIQIDGAGRT
For B53, the protein stability index (parent: IOH51997_53, c terminus: a fixed tail appended) was 3.46.
